Measurements taken from paper PMC3032050, “LPS ligand and culture additives improve production of monomeric MD-1 and 2 in Pichia pastoris by decreasing aggregation and intermolecular disulfide bonding” (Protein Expression and Purification, 2011).
One block for each binder: values may come before it.

Tests used:
[1] = biological target: T1, human MD-2 (myeloid differentiation factor 2) (human), Q9Y6Y9; assay: SEC; nickel-purified protein on HiLoad 16/60 Superdex 200 in 50 mM sodium acetate, pH 5.0; without additive, or with the anti-aggregation additive (0.2 M MgSO4 for hMD-2) in culture medium and buffers; conditions: remark: other sources report otherwise
T1 chain: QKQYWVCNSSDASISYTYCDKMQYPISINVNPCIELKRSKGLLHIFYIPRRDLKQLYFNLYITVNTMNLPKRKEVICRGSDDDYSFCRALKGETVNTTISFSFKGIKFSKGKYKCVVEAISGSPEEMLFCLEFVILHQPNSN

[2] = biological target: the molecule itself; assay: non-reducing SDS-PAGE with anti-His Western blot; culture supernatants of GS115 and KM71H cultures, induced without or with culture additives

percent monomeric (with 0.2 M MgSO4) [1]: 15%
B1: human MD-2 (myeloid differentiation factor 2), Q9Y6Y9 19-160 (natural protein)
chain: T1 chain

B2: human MD-1 (myeloid differentiation factor 1) (natural protein, UniProt O95711 21-162, looked up)
chain: GGGGKAWPTHVVCSDSGLEVLYQSCDPLQDFGFSVEKCSKQLKSNINIRFGIILREDIKELFLDLALMSQGSSVLNFSYPICEAALPKFSFCGRRKGEQIYYAGPVNNPEFTIPQGEYQVLLELYTEKRSTVACANATIMCS
notes: A TEV cleavage site lies between the His6-tag and the protein; Secreted by the S. cerevisiae alpha factor prepro peptide; Glycoprotein; also called hMD-1; source: Pichia pastoris GS115 or KM71H (pPIC9K), secreted; not shown: His6, N-terminal, kept
binding result [2]: binds
